# Data from PMC11671767, “GENOMES UNCOUPLED PROTEIN1 binds to plastid RNAs and promotes their maturation”.
# Assays:
# GUN1-PS [1] = molecular target: T1, GUN1-PS (Arabidopsis thaliana, UniProt Q9SIC9 232-918); test: EMSA; 100-600 nM protein; 5x buffer (4 ul per reaction): 50 mM Tris-HCl pH 7.5, 50 mM NaCl, 200 mM KCl, 5 mM MgCl2, 5 mM EDTA, 5 mM DTT, 0.25 mg/ml BSA, 5% glycerol; 30 min at 23 C; 5% native PAGE, 0.5x TBE, 4 C; conditions: protein: recombinant, tags: N-terminal TRX-His
# T1 sequence: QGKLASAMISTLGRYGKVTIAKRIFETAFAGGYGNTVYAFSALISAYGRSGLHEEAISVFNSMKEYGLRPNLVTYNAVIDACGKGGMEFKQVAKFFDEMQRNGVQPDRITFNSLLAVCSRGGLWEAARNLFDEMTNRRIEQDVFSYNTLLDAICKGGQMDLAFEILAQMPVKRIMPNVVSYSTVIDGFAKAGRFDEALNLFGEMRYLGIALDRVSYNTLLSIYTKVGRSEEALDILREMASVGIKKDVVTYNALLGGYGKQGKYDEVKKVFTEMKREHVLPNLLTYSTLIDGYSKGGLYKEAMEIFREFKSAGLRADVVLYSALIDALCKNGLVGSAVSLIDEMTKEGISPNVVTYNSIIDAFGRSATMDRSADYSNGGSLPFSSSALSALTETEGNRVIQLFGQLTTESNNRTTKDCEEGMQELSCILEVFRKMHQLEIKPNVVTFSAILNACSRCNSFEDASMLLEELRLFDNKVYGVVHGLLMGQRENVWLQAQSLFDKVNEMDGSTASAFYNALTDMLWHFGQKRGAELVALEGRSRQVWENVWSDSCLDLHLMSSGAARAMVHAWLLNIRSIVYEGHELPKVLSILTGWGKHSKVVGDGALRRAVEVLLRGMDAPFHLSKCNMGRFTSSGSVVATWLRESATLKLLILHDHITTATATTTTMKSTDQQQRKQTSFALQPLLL
# GUN1-PS [2] = molecular target: T1, GUN1-PS; test: competition; vs Cy5-ndhG, 5-50x; 5x buffer (4 ul per reaction): 50 mM Tris-HCl pH 7.5, 50 mM NaCl, 200 mM KCl, 5 mM MgCl2, 5 mM EDTA, 5 mM DTT, 0.25 mg/ml BSA, 5% glycerol; 30 min at 23 C; 5% native PAGE, 0.5x TBE, 4 C; conditions: protein: recombinant; tags: N-terminal TRX-His; hairpin loop (predicted)
# GUN1-PS [3] = molecular target: T1, GUN1-PS; test: competition; vs Cy5-trnG.1, 5-50x; 5x buffer (4 ul per reaction): 50 mM Tris-HCl pH 7.5, 50 mM NaCl, 200 mM KCl, 5 mM MgCl2, 5 mM EDTA, 5 mM DTT, 0.25 mg/ml BSA, 5% glycerol; 30 min at 23 C; 5% native PAGE, 0.5x TBE, 4 C; conditions: protein: recombinant; tags: N-terminal TRX-His
# GUN1-PS [4] = molecular target: T1, GUN1-PS; test: competition; vs Cy5-23S_104856, 5-50x; reduces the weak shift; 5x buffer (4 ul per reaction): 50 mM Tris-HCl pH 7.5, 50 mM NaCl, 200 mM KCl, 5 mM MgCl2, 5 mM EDTA, 5 mM DTT, 0.25 mg/ml BSA, 5% glycerol; 30 min at 23 C; 5% native PAGE, 0.5x TBE, 4 C; conditions: protein: recombinant; tags: N-terminal TRX-His
# GUN1-PS [5] = molecular target: T1, GUN1-PS; test: EMSA; binding at 37 C, gel at room temperature; no clear shift; 5x buffer (4 ul per reaction): 50 mM Tris-HCl pH 7.5, 50 mM NaCl, 200 mM KCl, 5 mM MgCl2, 5 mM EDTA, 5 mM DTT, 0.25 mg/ml BSA, 5% glycerol; 30 min at 23 C; 5% native PAGE, 0.5x TBE, 4 C; conditions: protein: recombinant; tags: N-terminal TRX-His
# GUN1-PS [6] = molecular target: T1, GUN1-PS; test: EMSA; binding at 37 C, gel at room temperature; similar to RNA1; 5x buffer (4 ul per reaction): 50 mM Tris-HCl pH 7.5, 50 mM NaCl, 200 mM KCl, 5 mM MgCl2, 5 mM EDTA, 5 mM DTT, 0.25 mg/ml BSA, 5% glycerol; 30 min at 23 C; 5% native PAGE, 0.5x TBE, 4 C; conditions: protein: recombinant; tags: N-terminal TRX-His
binder,measurement,setting,value
AGAAAAAAAUCUGUUGAUAAAUGAA (ssRNA) [ndhG_118454],binding result,GUN1-PS [1]; hairpin loop (predicted),binds
AUUUGGGAAUUUCUCCAUCCAUCAU (ssRNA) [trnG.1],binding result,GUN1-PS [1],binds
AGAAAAAAAUCUGUUGAUAAAUGAA (ssRNA) [ndhG_118454 unlabeled],binding result,GUN1-PS [2],binds
AUUUGGGAAUUUCUCCAUCCAUCAU (ssRNA) [trnG.1 unlabeled],binding result,GUN1-PS [3],binds
GCAUCUGAAUUUCAUAACCAAUCUCGAU (ssRNA) [nonspecific competitor for trnG.1],binding result,GUN1-PS [3],no binding
AUUCUUAUGUGGCAGUCUCUAGUCCACUAGCUUUUG (ssRNA) [nonspecific competitor for 23S and ndhG],binding result,GUN1-PS [4],binds
GGAAAUCCGUCGAUAUCUCU (ssRNA) [Kim_RNA1 (BLRP)],binding result,GUN1-PS [5],no binding
GGACCGAAUGAUCUAUCUCU (ssRNA) [Kim_RNA3 (BLRP mut)],binding result,GUN1-PS [6],no binding
